Measured values taken from PMC7351214.

Assays:
[1] = target: C5b6 complex generated on convertase-labelled E. coli from C5 and C6 (human) (UniProt P01031)
[2] = target: C5b6 complex generated on convertase-labelled E. coli from C5 and C6 (human) (UniProt P01031); remark: listed apart in the source
[3] = target: C5b6 complex generated on convertase-labelled E. coli from C5 and C6 (human) (UniProt P01031); remark: listed apart in the source

Sequence of UniProt P01031 (P01031 19-673, chain 1 of 3): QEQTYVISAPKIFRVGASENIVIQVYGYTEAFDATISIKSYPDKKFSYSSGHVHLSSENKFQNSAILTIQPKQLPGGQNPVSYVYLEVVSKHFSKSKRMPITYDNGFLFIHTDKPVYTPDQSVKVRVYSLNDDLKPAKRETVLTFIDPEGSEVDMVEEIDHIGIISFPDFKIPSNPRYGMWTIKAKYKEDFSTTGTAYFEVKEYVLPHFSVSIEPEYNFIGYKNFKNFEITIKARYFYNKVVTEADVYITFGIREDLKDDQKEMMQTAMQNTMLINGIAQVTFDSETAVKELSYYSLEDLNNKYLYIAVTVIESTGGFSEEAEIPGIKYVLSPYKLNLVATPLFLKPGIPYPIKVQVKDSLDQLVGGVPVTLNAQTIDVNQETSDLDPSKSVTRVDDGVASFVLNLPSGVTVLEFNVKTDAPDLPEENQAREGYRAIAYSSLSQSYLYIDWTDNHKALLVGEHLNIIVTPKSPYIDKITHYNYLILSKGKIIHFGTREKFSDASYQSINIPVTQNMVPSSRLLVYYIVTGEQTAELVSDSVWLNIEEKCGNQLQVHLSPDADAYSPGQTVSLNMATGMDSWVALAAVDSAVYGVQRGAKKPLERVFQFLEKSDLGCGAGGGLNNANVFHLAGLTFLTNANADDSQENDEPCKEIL
Sequence of UniProt P01031 (P01031 752-1676, chain 2 of 3): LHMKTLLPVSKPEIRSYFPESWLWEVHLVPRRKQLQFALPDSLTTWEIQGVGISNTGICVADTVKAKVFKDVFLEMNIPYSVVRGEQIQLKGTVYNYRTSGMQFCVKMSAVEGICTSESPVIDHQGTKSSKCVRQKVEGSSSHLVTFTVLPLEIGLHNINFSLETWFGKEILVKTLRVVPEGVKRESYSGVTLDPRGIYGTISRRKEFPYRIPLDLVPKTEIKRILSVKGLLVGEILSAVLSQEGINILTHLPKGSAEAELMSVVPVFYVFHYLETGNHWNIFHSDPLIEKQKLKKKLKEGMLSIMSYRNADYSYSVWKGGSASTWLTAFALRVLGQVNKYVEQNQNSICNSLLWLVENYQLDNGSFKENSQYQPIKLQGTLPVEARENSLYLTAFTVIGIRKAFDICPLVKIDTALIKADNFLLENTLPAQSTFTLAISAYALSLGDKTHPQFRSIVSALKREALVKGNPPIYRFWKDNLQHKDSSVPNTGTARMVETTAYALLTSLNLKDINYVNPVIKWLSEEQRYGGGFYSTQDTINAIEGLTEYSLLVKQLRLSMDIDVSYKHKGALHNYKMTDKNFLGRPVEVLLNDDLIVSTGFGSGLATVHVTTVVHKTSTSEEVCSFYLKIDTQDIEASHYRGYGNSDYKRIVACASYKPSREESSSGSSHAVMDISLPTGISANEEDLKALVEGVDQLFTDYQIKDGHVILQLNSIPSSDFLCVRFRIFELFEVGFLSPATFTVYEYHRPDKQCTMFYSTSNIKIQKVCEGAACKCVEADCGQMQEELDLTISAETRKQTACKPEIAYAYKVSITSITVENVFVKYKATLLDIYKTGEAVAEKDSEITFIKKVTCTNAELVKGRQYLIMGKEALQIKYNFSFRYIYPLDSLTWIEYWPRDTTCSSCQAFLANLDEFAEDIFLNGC
Sequence of UniProt P01031 (P13671 22-934, chain 3 of 3, further chain): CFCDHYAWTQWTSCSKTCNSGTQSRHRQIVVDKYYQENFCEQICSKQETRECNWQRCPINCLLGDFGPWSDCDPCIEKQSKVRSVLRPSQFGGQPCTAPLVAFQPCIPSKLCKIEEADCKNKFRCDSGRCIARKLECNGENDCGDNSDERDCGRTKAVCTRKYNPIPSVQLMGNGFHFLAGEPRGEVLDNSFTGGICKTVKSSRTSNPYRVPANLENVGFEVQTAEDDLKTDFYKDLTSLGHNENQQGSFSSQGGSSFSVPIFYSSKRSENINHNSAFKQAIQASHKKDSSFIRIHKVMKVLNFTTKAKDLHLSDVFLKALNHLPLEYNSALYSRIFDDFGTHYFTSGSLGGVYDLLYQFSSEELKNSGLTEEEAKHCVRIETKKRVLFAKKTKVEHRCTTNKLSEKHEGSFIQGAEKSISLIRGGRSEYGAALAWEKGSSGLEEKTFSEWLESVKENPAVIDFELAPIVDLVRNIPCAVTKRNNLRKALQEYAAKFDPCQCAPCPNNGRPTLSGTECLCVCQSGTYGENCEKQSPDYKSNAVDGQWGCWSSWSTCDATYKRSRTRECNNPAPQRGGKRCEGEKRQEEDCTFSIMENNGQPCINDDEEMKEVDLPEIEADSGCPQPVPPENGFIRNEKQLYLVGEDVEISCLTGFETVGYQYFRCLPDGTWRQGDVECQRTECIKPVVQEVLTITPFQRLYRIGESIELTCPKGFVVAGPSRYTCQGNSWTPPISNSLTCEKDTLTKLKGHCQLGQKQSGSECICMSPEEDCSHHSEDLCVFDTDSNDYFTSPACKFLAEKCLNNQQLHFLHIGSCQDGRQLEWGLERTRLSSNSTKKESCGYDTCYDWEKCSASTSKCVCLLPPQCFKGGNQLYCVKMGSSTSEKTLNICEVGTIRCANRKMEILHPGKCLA

His-tagged complement component C7 (from UniProt P10643 23-843) (natural protein)
percentage of Sytox positive (inner membrane damaged) E. coli MG1655 after addition of C8 and C9; C7 present from t = 0 (~100%) or added 60 minutes after C5b6 generation was initiated (~6%) [1]: 100%
deposition of C9-Cy5 (geoMFI) on E. coli MG1655, C5b6 generated in the absence of C7 against in the presence of C7 [2]: 50 fold
fluorescence ratio C9:C6 on E. coli MG1655, C5b6 generated in the presence of C7 against in the absence of C7 [2]: 10 fold
deposition of C6-Cy5 (geoMFI) on convertase-labelled E. coli MG1655 after 60 minutes, C5b6 generated in the presence of C7 against in its absence [3]: 10 fold
